Assay results from paper PMC4753521.
Values belong to the substance of their own block, whether it stands above or below them.

Assays:
[1] = target: TFIIH p62 subunit PH domain, 1-108 (UniProt P32780); experiment: real-time NMR of complex during CK2 reaction; conditions: reference: complex before CK2 addition; sites S129
[2] = target: TFIIH p62 subunit PH domain, 1-108 (UniProt P32780); experiment: real-time NMR of complex during JNK2α2 reaction; conditions: reference: Thr55-phosphorylated complex before JNK2α2; sites S46
[3] = target: TFIIH p62 PH (Homo sapiens) (UniProt P32780); experiment: ITC; conditions: cited from earlier work
[4] = target: TFIIH p62 PH (Homo sapiens) (UniProt P32780); experiment: ITC; conditions: cited from earlier work; remark: listed apart in the source
[5] = target: TFIIH p62 PH (Homo sapiens) (UniProt P32780); experiment: ITC; conditions: cited from earlier work; remark: listed apart in the source
[6] = target: TFIIH p62 subunit PH domain, 1-108 (UniProt P32780); experiment: real-time NMR of complex during GRK5 reaction; conditions: reference: complex before GRK5 addition; sites T55

binding against the reference [1]: stronger
Substance: XPC AF, 109-156 (from UniProt Q01831) complex after CK2 reaction

binding against the reference [2]: stronger
Substance: p53 TAD, 1-73 (from UniProt P04637) same complex after JNK2α2 reaction

Substance: p53 TAD2 (from UniProt P04637)
Kd [3]: 5 µM
Kd [4]: 1 µM
Kd [5]: 6 µM

binding against the reference [6]: stronger
Substance: p53 TAD, 1-73 (from UniProt P04637) complex after GRK5 reaction
